B1: PER2: recombinant PER2 (amino acids 691 to 900), N-terminal MBP-His fusion (protein, UniProt O15055 691-900, looked up, fragment)
chain: VEDAASGPESLDCLAGPALACGLSQEKEPFKKLGLTKEVLAAHTQKEEQSFLQKFKEIRKLSIFQSHCHYYLQERSKGQPSERTAPGLRNTSGIDSPWKKTGKNRKLKSKRVKPRDSSESTGSGGPVSARPPLVGLNATAWSPSDTSQSSCPAVPFPAPVPAAYSLPVFPAPGTVAAPPAPPHASFTVPAVPVDLQHQFAVQPPPFPAPL
modifications: N-terminal MBP-His fusion
notes: recombinant PER2 (amino acids 691 to 900), N-terminal MBP-His fusion
B2: ATP6V1G3: recombinant ATP6V1G3 (full length), N-terminal GST fusion (protein, UniProt Q96LB4 1-118, looked up)
chain: MTSQSQGIHQLLQAEKRAKDKLEEAKKRKGKRLKQAKEEAMVEIDQYRMQRDKEFRLKQSKIMGSQNNLSDEIEEQTLGKIQELNGHYNKYMESVMNQLLSMVCDMKPEIHVNYRATN
modifications: full-length N-terminal GST fusion
B3: ZPK: recombinant protein, predicted SMYD2 substrate (protein, UniProt Q12852 1-859, looked up)
Mitogen-activated protein …: MACLHETRTPSPSFGGFVSTLSEASMRKLDPDTSDCTPEKDLTPTHVLQLHEQDAGGPGGAAGSPESRASRVRADEVRLQCQSGSGFLEGLFGCLRPVWTMIGKAYSTEHKQQQEDLWEVPFEEILDLQWVGSGAQGAVFLGRFHGEEVAVKKVRDLKETDIKHLRKLKHPNIITFKGVCTQAPCYCILMEFCAQGQLYEVLRAGRPVTPSLLVDWSMGIAGGMNYLHLHKIIHRDLKSPNMLITYDDVVKISDFGTSKELSDKSTKMSFAGTVAWMAPEVIRNEPVSEKVDIWSFGVVLWELLTGEIPYKDVDSSAIIWGVGSNSLHLPVPSSCPDGFKILLRQCWNSKPRNRPSFRQILLHLDIASADVLSTPQETYFKSQAEWREEVKLHFEKIKSEGTCLHRLEEELVMRRREELRHALDIREHYERKLERANNLYMELNALMLQLELKERELLRREQALERRCPGLLKPHPSRGLLHGNTMEKLIKKRNVPQKLSPHSKRPDILKTESLLPKLDAALSGVGLPGCPKGPPSPGRSRRGKTRHRKASAKGSCGDLPGLRTAVPPHEPGGPGSPGGLGGGPSAWEACPPALRGLHHDLLLRKMSSSSPDLLSAALGSRGRGATGGAGDPGSPPPARGDTPPSEGSAPGSTSPDSPGGAKGEPPPPVGPGEGVGLLGTGREGTSGRGGSRAGSQHLTPAALLYRAAVTRSQKRGISSEEEEGEVDSEVELTSSQRWPQSLNMRQSLSTFSSENPSDGEEGTASEPSPSGTPEVGSTNTDERPDERSDDMCSQGSEIPLDPPPSEVIPGPEPSSLPIPHQELLRERGPPNSEDSDCDSTELDNSNSVDALRPPASLPP
B4: GDAP1: recombinant GDAP1 (full length), Abcam (protein, UniProt Q8TB36 1-358, looked up)
chain: MAERQEEQRGSPPLRAEGKADAEVKLILYHWTHSFSSQKVRLVIAEKALKCEEHDVSLPLSEHNEPWFMRLNSTGEVPVLIHGENIICEATQIIDYLEQTFLDERTPRLMPDKESMYYPRVQHYRELLDSLPMDAYTHGCILHPELTVDSMIPAYATTRIRSQIGNTESELKKLAEENPDLQEAYIAKQKRLKSKLLDHDNVKYLKKILDELEKVLDQVETELQRRNEETPEEGQQPWLCGESFTLADVSLAVTLHRLKFLGFARRNWGNGKRPNLETYYERVLKRKTFNKVLGHVNNILISAVLPTAFRVAKKRAPKVLGTTLVVGLLAGVGYFAFMLFRKRLGSMILAFRPRPNYF
modifications: full-length
notes: recombinant GDAP1 (full length), Abcam
B5: MAPKAPK3: full-length recombinant MAPKAPK3, known SMYD2 substrate (protein, UniProt Q16644 1-382, looked up)
chain: MDGETAEEQGGPVPPPVAPGGPGLGGAPGGRREPKKYAVTDDYQLSKQVLGLGVNGKVLECFHRRTGQKCALKLLYDSPKARQEVDHHWQASGGPHIVCILDVYENMHHGKRCLLIIMECMEGGELFSRIQERGDQAFTEREAAEIMRDIGTAIQFLHSHNIAHRDVKPENLLYTSKEKDAVLKLTDFGFAKETTQNALQTPCYTPYYVAPEVLGPEKYDKSCDMWSLGVIMYILLCGFPPFYSNTGQAISPGMKRRIRLGQYGFPNPEWSEVSEDAKQLIRLLLKTDPTERLTITQFMNHPWINQSMVVPQTPLHTARVLQEDKDHWDEVKEEMTSALATMRVDYDQVKIKDLKTSNNRLLNKRRKKQAGSSSASQGCNNQ
modifications: full-length
notes: full-length recombinant MAPKAPK3, known SMYD2 substrate
B6: MAPKAPK3 (D353R and T356S): MAPKAPK3 with mutations predicted to enhance methylation (protein, UniProt Q16644 1-382, looked up, variant D353R T356S)
MAP kinase-activated protein …: B5 chain with D353R, T356S
B7: CDC5L: recombinant CDC5L (amino acids 150 to 280), N-terminal GST fusion (protein, UniProt Q99459 150-280, looked up, fragment)
chain: EMLSEARARLANTQGKKAKRKAREKQLEEARRLAALQKRRELRAAGIEIQKKRKRKRGVDYNAEIPFEKKPALGFYDTSEENYQALDADFRKLRQQDLDGELRSEKEGRDRKKDKQHLKRKKESDLPSAIL
modifications: N-terminal GST fusion
notes: recombinant CDC5L (amino acids 150 to 280), N-terminal GST fusion

Changes are numbered by the printed parent chain. Names may count otherwise. “Also recorded” adds a separate entry of the source.

T1 sequence (Q9NRG4 whole entry, the tested form may be a part): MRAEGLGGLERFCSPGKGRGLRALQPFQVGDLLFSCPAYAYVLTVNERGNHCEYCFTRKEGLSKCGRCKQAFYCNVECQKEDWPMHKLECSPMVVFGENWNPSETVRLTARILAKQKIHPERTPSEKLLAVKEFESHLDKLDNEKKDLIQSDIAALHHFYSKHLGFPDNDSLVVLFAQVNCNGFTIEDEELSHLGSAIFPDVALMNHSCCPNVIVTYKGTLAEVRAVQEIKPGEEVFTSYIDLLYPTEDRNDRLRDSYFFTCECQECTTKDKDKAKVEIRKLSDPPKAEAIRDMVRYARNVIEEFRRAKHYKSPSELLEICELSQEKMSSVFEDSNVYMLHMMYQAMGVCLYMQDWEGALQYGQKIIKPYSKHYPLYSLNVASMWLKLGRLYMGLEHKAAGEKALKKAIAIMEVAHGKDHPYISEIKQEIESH

One experiment addresses T1, SMYD2 (Homo sapiens, UniProt Q9NRG4).
T1 construct: SMYD2 (full length) was expressed as a N-terminal glutathione S-transferase (GST) fusion; GST (N); made in house; host or cells: Escherichia coli BL21(DE3)
The experiment in a line: SPA kinetic analysis of SMYD2 methylation of peptide substrates. The format is biochemical. Particulars: 200 nM SMYD2, 50 μM SAM, varied substrate concentration, mean of three independent measurements (Fig. 4D). The procedure: Reactions (10 μl) containing 1 μg of KMT, 1 μg of a K-OPL set, and 1 μCi of ^3H-SAM (PerkinElmer) in KMT reaction buffer [50 mM tris (pH 8.8), 5 mM MgCl2, and 4 mM dithiothreitol] were incubated for 1 hour at room temperature. Reactions were stopped by adding trifluoracetic acid to a final concentration of 0.5%, neutralized by diluting with 135 μl of 50 mM NaHCO3, and transferred to streptavidin-coated FlashPlates (PerkinElmer). Plates were incubated for 15 min, sealed, and counted in a MicroBeta2 liquid scintillation counter (PerkinElmer) for 1 min per sample. Initial rate measure and kinetic analysis were performed using the same procedure with 200 nM SMYD2, 50 μM SAM (5:1 cold/hot ratio), and 80 μM substrate (initial rate measurements) or as indicated (kinetic analysis). IC50 measurements were performed using the same conditions with 5 μM PER2 peptide as a substrate.
B1: the “kinetic model of SMYD2 methylation” value is “consistent with substrate inhibition”.

A further experiment has as its target T1, SMYD2. The experiment can be described thus: In vitro SMYD2 methyltransferase assay with protein substrates (SDS-PAGE, 3H fluorography). In kind it is biochemical. As to conditions: 1 μg of KMT, 1 μg of substrate, 1 μCi 3H-SAM, 1 hour, room temperature; 3H fluorography (Fig. 5A, 5B, fig. S5A). The method, then: Reactions (10 μl) containing 1 μg of KMT, 1 μg of the indicated substrates, and 1 μCi of ^3H-SAM (PerkinElmer) in KMT reaction buffer were incubated for 1 hour at room temperature. Reactions were quenched by the addition of SDS loading buffer and resolved by SDS–polyacrylamide gel electrophoresis. Following the detection of total protein by Coomassie staining, gels were treated with EN^3HANCE (PerkinElmer) and dried, and methylated proteins were detected by autoradiography.
Fig. S5. In vitro SMYD2 assays with protein substrates. (A) Coomassie stained SDS-PAGE of recombinant control (HIS-GST), known substrates (p53, MAPKAPK3), and predicted substrates (PRDM11, GDAP1, MAP3K12) in the absence and presence of SMYD2. Reactions were carried out with 1 μg of SMYD2, 1 μg of substrate, and 1 μCi of 3H-SAM. 3H fluorograph shown below after 24 hour exposure at -80 °C (B) Cartoon repre- sentation of ZPK (PDB:
5CEN) showing plus and minus three amino acids from the target lysine (PO) as stick models.
(1 picture or pasted object on this page, not shown here)
For the molecule B2, the “methylation of recombinant protein substrate by SMYD2” value (from here on “methylation … by SMYD2”) is “methylated by SMYD2; also recorded: at least as efficiently as the known substrate, p53”.
B3: the “methylation … by SMYD2” value is on record as “methylated by SMYD2; also recorded: poor SMYD2 substrates”.
Regarding B4, the “methylation … by SMYD2” value was “methylated by SMYD2; also recorded: poor SMYD2 substrates”.
The same measure, in the same setting: the value for B5 was “weaker than most of the newly identified SMYD2 substrates”; that for B6 was “improved methylation of this protein”; that for B1 was “methylated by SMYD2; also recorded: at least as efficiently as the known substrate, p53”.
Still for that read-out and setting: the value for B7 was “methylated by SMYD2; also recorded: at least as efficiently as the known substrate, p53”.

The record behind these values is article PMC6261651, “A functional proteomics platform to reveal the sequence determinants of lysine methyltransferase substrate selectivity” (Science Advances, 2018).
